Here are results for 13 substances from article PMC11808092.

Experiment [1] addresses human dUTPase (human).
Experiment [2] addresses human dUTPase (human). The experiment is described as follows: steady state enzyme inhibition assay; apparent; 50 nM hDUT preincubated 5 min with varying Stl variant, 30 µM dUTP, 25 °C, 1 mM HEPES, 150 mM KCl, 5 mM MgCl2, 40 µM phenol red, pH 7.5; quadratic binding equation.
The target of experiment [3] is human dUTPase (human). The experiment is described as follows: crystal structure; Stl^NT and hDUT mixed in 1:1 monomer molar ratio, ca. 20 mg/ml; crystals at 20 °C from 1.5 M ammonium sulfate, 0.1 M sodium acetate pH 5; 3.2 Å.
For experiment [4], the target named is biotinylated Stl^NT (residues 1-159) with C-terminal Avi-tag (Staphylococcus aureus). The experiment is described as follows: BLI; biotinylated Stl construct on streptavidin SAX biosensors, hDUT in solution; Octet K2, 30 °C, 50 mM HEPES, 300 mM NaCl, 5 mM MgCl2, pH 7.5; at least five dilutions; 1:1 binding model; substrate-free. In general terms: BLI is a label-free optical method that tracks binding on a fibre tip over time.

The substance Stl-E189A (natural protein) had a Residual activity of 50 nM hDUT at 300 nM Stl concentration in experiment [1] of 77%.
For the substance “Stl protein, wild type, full-length (natural protein)”, in experiment [1], the Residual activity of 50 nM hDUT at 300 nM Stl concentration came to 30%.
Same read-out and setting: under Stl-Y106K (natural protein) stands 83%; under Stl-V55S (natural protein), 75%; under Stl-S114D (natural protein), 100%.
Stl-Y116R (natural protein) gave a Residual activity of 50 nM hDUT at 300 nM Stl concentration in experiment [1] of 69%.
Stl-I181A, I184A (natural protein): the Residual activity of 50 nM hDUT at 300 nM Stl concentration in experiment [1] worked out at 70%. Moreover, the Ki in experiment [2] is 2.3 nM.
In the case of “Stl^NT (amino terminal domain of Stl, residues 1-159) (domain or fragment)”, the Residual activity of 50 nM hDUT at 300 nM Stl concentration in experiment [1] was 50%. Besides, in experiment [2], the Ki came out at 31 nM.
For the substance Stl-S114E (natural protein), the Residual activity of 50 nM hDUT at 300 nM Stl concentration in experiment [1] turned out to be 100%.
The term stoichiometry N denotes a count of units in the complex or per binding partner. The Kd is a measure of binding affinity in units of concentration. Low readings indicate tighter binding, high ones weaker binding. In general, koff refers to the first-order rate constant of dissociation. A high value points to fast dissociation. In general, kon refers to the second-order rate constant of association. Turning to human dUTPase (enzyme), in experiment [3], the stoichiometry N is 3. In experiment [4], this substance returned a Kd of 0.177 nM, a koff of 0.000106 s⁻¹ and a kon of 600000 M⁻¹ s⁻¹.
In the case of Stl-L192A, F196A (natural protein), the Residual activity of 50 nM hDUT at 300 nM Stl concentration in experiment [1] amounted to 100%.
Same read-out and setting: the value for Stl-Y106R (natural protein) was 89%.
In experiment [1], Stl-derived peptide 95-…-117 came in with a Residual activity of 50 nM hDUT at 300 nM Stl concentration of 70%. Further, the Ki in experiment [2] is 13 nM.
